In patent US20220323445A1, “REDUCING IMMUNOGENICITY TO PEGLOTICASE” (Horizon Therapeutics Ireland DAC, priority 2020, published 2022):

Test system: patients with uncontrolled gout
Experiment: Health Assessment Questionnaire (HAQ-DI, HAQ pain, HAQ health), open-label study
Assay type: in vivo, human
Set-up: key to HAQ-Health, Observed, Median / HAQ-Health, Change from Baseline, Median: 0-100 scale; 0 = very well, 100 = very poor health; key to HAQ-DI, Observed, Median / HAQ-DI, Change from Baseline, Median: HAQ-DI scale 0-3; 0 = no difficulty, 3 = unable to do
Details: mITT
Protocol: Quality-of-Life Assessment: The HAQ was administered at the Screening and Week −4 or week −6 (prior to the first dose of MTX) Visits during the MTX Run-in Period for the open-label and randomized studies, respectively; prior to pegloticase infusion at the Day 1 and Weeks 14, 24 and 36 Visits or at the Day 1 and weeks 6, 14, 20, 24, 30, 36, and 44 visits during the Pegloticase+IMM Period for the open-label and randomized studies, respectively; at the End of Pegloticase Infusions Visit (if applicable), the Week 52/End of Study/Early Termination Visit and the Post Treatment Periods 3 and 6 Month Follow-up Visits (open-label study). The HAQ-DI is a self-report functional status instrument that can be filled out by a subject in less than 5 minutes and requires 1 minute to score. The index measures disability over the past week by asking a total of 20 questions covering 8 domains of function: dressing and grooming, arising, eating, walking, hygiene, reach, grip, and usual activities. There are at least 2 questions in each domain and the 8 domains represent a comprehensive set of functional activities. The HAQ-DI is calculated by scoring the answer to each question in the HAQ from 0 to 3, with 0 representing the ability to do without any difficulty, and 3 representing inability to do. Any activity that requires assistance from another individual or requires the use of an assistive device raises a 0 or 1 score to a 2. The highest score for each of the 8 domains is summed (range from 0 to 24) and divided by 8 to yield, on a scale with 25 possible values, a Functional Disability Index with a range from 0 to 3. The disability index is based on the number of domains answered and is computed only if the subject completes answers to at least 6 domains. The HAQ pain scale asks subjects to record how much pain they have had in the past week on a scale of 0 to 100, where zero represents “no pain” and 100 represents “severe pain”. The HAQ health scale is a measure of overall health. Subjects are asked to rate how well they are doing on a score of 0 to 100, where zero represents “very well” and 100 represents “very poor” health.

[1] = Day 1 vs Methotrexate Baseline, n=13
[2] = Early Termination Visit vs Methotrexate Baseline, n=3
[3] = Early Termination Visit vs Pegloticase Baseline, n=3
[4] = End of Pegloticase Infusions Visit vs Methotrexate Baseline, n=2
[5] = End of Pegloticase Infusions Visit vs Pegloticase Baseline, n=2
[6] = End of Pegloticase Infusions Visit, n=2
[7] = Week 14 vs Methotrexate Baseline, n=14
[8] = Week 14 vs Pegloticase Baseline, n=14
[9] = Week 24 vs Methotrexate Baseline, n=11
[10] = Week 24 vs Pegloticase Baseline, n=11
[11] = Week 36 vs Methotrexate Baseline, n=9
[12] = Week 36 vs Pegloticase Baseline, n=9
[13] = Week 52/ET vs Methotrexate Baseline, n=3
[14] = Week 52/ET vs Pegloticase Baseline, n=3

B1: pegloticase (protein)
chain: TYKKNDEVEFVRTGYGKDMIKVLHIQRDGKYHSIKEVATTVQLTLSSKKDYLHGDNSDVIPTDTIKNTVNVLAKFKGIKSIETFAVTICEHFLSSFKHVIRAQVYVEEVPWKRFEKNGVKHVHAFIYTPTGTHFCEVEQIRNGPPVIHSGIKDLKVLKTTQSGFEGFIKDQFTTLPEVKDRCFATQVYCKWRYHQGRDVDFEATWDTVRSIVLQKFAGPYDKGEYSPSVQKTLYDIQVLTLGQVPEIEDMEISLPNIHYLNIDMSKMGLINKEEVLLPLDNPYGKITGTVKRKLSSRL
modifications: monomethoxy PEG conjugated; Krystexxa Sequence
notes: covalent conjugate of uricase produced by a genetically modified strain of Escherichia coli and monomethoxypoly (ethylene glycol)
Day 1, n=13
  HAQ-DI, Observed, Mean (SD): 0.8 (0.77)
  HAQ-DI, Observed, Median: 0.5
  HAQ-Health, Observed, Mean (SD): 37.8 (27.06)
  HAQ-Health, Observed, Median: 25.0
  HAQ-Pain, Observed, Mean (SD): 42.5 (22.24)
  HAQ-Pain, Observed, Median: 40.0
[1]
  HAQ-DI, Change from Baseline, Mean (SD): 0.1 (0.27)
  HAQ-DI, Change from Baseline, Median: 0.0
  HAQ-Health, Change from Baseline, Mean (SD): −8.8 (38.29)
  HAQ-Health, Change from Baseline, Median: 10.0
  HAQ-Pain, Change from Baseline, Mean (SD): 2.3 (19.93)
  HAQ-Pain, Change from Baseline, Median: 0.0
[2]
  HAQ-DI, Change from Baseline, Mean (SD): 0.2 (0.90)
  HAQ-DI, Change from Baseline, Median: −0.3
  HAQ-Health, Change from Baseline, Mean (SD): −0.7 (16.77)
  HAQ-Health, Change from Baseline, Median: 8.0
  HAQ-Pain, Change from Baseline, Mean (SD): 19.0 (36.51)
  HAQ-Pain, Change from Baseline, Median: 7.0
[3]
  HAQ-DI, Change from Baseline, Mean (SD): 0.2 (0.56)
  HAQ-DI, Change from Baseline, Median: 0.1
  HAQ-Health, Change from Baseline, Mean (SD): −11.7 (62.52)
  HAQ-Health, Change from Baseline, Median: −10.0
  HAQ-Pain, Change from Baseline, Mean (SD): 0.0 (45.83)
  HAQ-Pain, Change from Baseline, Median: −10.0
Early Termination Visit, n=3
  HAQ-DI, Observed, Mean (SD): 0.7 (0.51)
  HAQ-DI, Observed, Median: 0.6
  HAQ-Health, Observed, Mean (SD): 28.3 (40.72)
  HAQ-Health, Observed, Median: 10.0
  HAQ-Pain, Observed, Mean (SD): 46.7 (40.41)
  HAQ-Pain, Observed, Median: 40.0
[4]
  HAQ-DI, Change from Baseline, Mean (SD): −0.1 (0.35)
  HAQ-DI, Change from Baseline, Median: −0.1
  HAQ-Health, Change from Baseline, Mean (SD): −80.0 (0.00)
  HAQ-Health, Change from Baseline, Median: −80.0
  HAQ-Pain, Change from Baseline, Mean (SD): 2.5 (74.25)
  HAQ-Pain, Change from Baseline, Median: 2.5
[5]
  HAQ-DI, Change from Baseline, Mean (SD): −0.1 (0.35)
  HAQ-DI, Change from Baseline, Median: −0.1
  HAQ-Health, Change from Baseline, Mean (SD): −45.0 (49.50)
  HAQ-Health, Change from Baseline, Median: −45.0
  HAQ-Pain, Change from Baseline, Mean (SD): 2.5 (74.25)
  HAQ-Pain, Change from Baseline, Median: 2.5
[6]
  HAQ-DI, Observed, Mean (SD): 0.1 (0.18)
  HAQ-DI, Observed, Median: 0.1
  HAQ-Health, Observed, Mean (SD): 0.0 (0.00)
  HAQ-Health, Observed, Median: 0.0
  HAQ-Pain, Observed, Mean (SD): 40.0 (56.57)
  HAQ-Pain, Observed, Median: 40.0
Week 14, n=14
  HAQ-DI, Observed, Mean (SD): 0.5 (0.41)
  HAQ-DI, Observed, Median: 0.5
  HAQ-Health, Observed, Mean (SD): 36.6 (33.87)
  HAQ-Health, Observed, Median: 16.5
  HAQ-Pain, Observed, Mean (SD): 27.1 (26.25)
  HAQ-Pain, Observed, Median: 15.0
[7]
  HAQ-DI, Change from Baseline, Mean (SD): −0.2 (0.77)
  HAQ-DI, Change from Baseline, Median: 0.0
  HAQ-Health, Change from Baseline, Mean (SD): −12.5 (36.79)
  HAQ-Health, Change from Baseline, Median: −5.0
  HAQ-Pain, Change from Baseline, Mean (SD): −13.9 (30.48)
  HAQ-Pain, Change from Baseline, Median: −12.5
[8]
  HAQ-DI, Change from Baseline, Mean (SD): −0.3 (0.80)
  HAQ-DI, Change from Baseline, Median: 0.0
  HAQ-Health, Change from Baseline, Mean (SD): −4.3 (43.82)
  HAQ-Health, Change from Baseline, Median: −1.0
  HAQ-Pain, Change from Baseline, Mean (SD): −16.0 (30.65)
  HAQ-Pain, Change from Baseline, Median: −12.5
Week 24, n=11
  HAQ-DI, Observed, Mean (SD): 0.2 (0.33)
  HAQ-DI, Observed, Median: 0.1
  HAQ-Health, Observed, Mean (SD): 21.4 (26.65)
  HAQ-Health, Observed, Median: 10.0
  HAQ-Pain, Observed, Mean (SD): 25.4 (27.50)
  HAQ-Pain, Observed, Median: 20.0
[9]
  HAQ-DI, Change from Baseline, Mean (SD): −0.5 (0.74)
  HAQ-DI, Change from Baseline, Median: −0.1
  HAQ-Health, Change from Baseline, Mean (SD): −33.2 (36.01)
  HAQ-Health, Change from Baseline, Median: −40.0
  HAQ-Pain, Change from Baseline, Mean (SD): −19.2 (35.13)
  HAQ-Pain, Change from Baseline, Median: −10.0
[10]
  HAQ-DI, Change from Baseline, Mean (SD): −0.6 (0.85)
  HAQ-DI, Change from Baseline, Median: −0.1
  HAQ-Health, Change from Baseline, Mean (SD): −19.7 (43.38)
  HAQ-Health, Change from Baseline, Median: −10.0
  HAQ-Pain, Change from Baseline, Mean (SD): −16.7 (38.53)
  HAQ-Pain, Change from Baseline, Median: −10.0
Week 36, n=9
  HAQ-DI, Observed, Mean (SD): 0.3 (0.49)
  HAQ-DI, Observed, Median: 0.1
  HAQ-Health, Observed, Mean (SD): 27.3 (35.18)
  HAQ-Health, Observed, Median: 10.0
  HAQ-Pain, Observed, Mean (SD): 21.0 (27.60)
  HAQ-Pain, Observed, Median: 10.0
[11]
  HAQ-DI, Change from Baseline, Mean (SD): −0.5 (0.80)
  HAQ-DI, Change from Baseline, Median: 0.0
  HAQ-Health, Change from Baseline, Mean (SD): −27.7 (42.59)
  HAQ-Health, Change from Baseline, Median: −10.0
  HAQ-Pain, Change from Baseline, Mean (SD): −22.9 (28.41)
  HAQ-Pain, Change from Baseline, Median: −20.0
[12]
  HAQ-DI, Change from Baseline, Mean (SD): −0.5 (0.86)
  HAQ-DI, Change from Baseline, Median: −0.1
  HAQ-Health, Change from Baseline, Mean (SD): −16.2 (50.72)
  HAQ-Health, Change from Baseline, Median: −10.0
  HAQ-Pain, Change from Baseline, Mean (SD): −19.9 (20.25)
  HAQ-Pain, Change from Baseline, Median: −20.0
[13]
  HAQ-DI, Change from Baseline, Mean (SD): −0.6 (0.87)
  HAQ-DI, Change from Baseline, Median: −0.1
  HAQ-Health, Change from Baseline, Mean (SD): −16.7 (59.23)
  HAQ-Health, Change from Baseline, Median: 15.0
  HAQ-Pain, Change from Baseline, Mean (SD): −42.7 (18.04)
  HAQ-Pain, Change from Baseline, Median: −44.0
[14]
  HAQ-DI, Change from Baseline, Mean (SD): −0.8 (1.08)
  HAQ-DI, Change from Baseline, Median: −0.1
  HAQ-Health, Change from Baseline, Mean (SD): 23.3 (54.85)
  HAQ-Health, Change from Baseline, Median: 5.0
  HAQ-Pain, Change from Baseline, Mean (SD): −41.0 (25.24)
  HAQ-Pain, Change from Baseline, Median: −29.0
Week 52/ET, n=3
  HAQ-DI, Observed, Mean (SD): 0.4 (0.29)
  HAQ-DI, Observed, Median: 0.3
  HAQ-Health, Observed, Mean (SD): 60.0 (48.22)
  HAQ-Health, Observed, Median: 80.0
  HAQ-Pain, Observed, Mean (SD): 4.0 (5.20)
  HAQ-Pain, Observed, Median: 1.0
